Test results as given in patent publication US20060051359A1.

Target: 8H9 antigen (human) (UniProt Q5ZPR3)
Test: cell-based or functional assay

Chain of UniProt Q5ZPR3 (Q5ZPR3 29-534): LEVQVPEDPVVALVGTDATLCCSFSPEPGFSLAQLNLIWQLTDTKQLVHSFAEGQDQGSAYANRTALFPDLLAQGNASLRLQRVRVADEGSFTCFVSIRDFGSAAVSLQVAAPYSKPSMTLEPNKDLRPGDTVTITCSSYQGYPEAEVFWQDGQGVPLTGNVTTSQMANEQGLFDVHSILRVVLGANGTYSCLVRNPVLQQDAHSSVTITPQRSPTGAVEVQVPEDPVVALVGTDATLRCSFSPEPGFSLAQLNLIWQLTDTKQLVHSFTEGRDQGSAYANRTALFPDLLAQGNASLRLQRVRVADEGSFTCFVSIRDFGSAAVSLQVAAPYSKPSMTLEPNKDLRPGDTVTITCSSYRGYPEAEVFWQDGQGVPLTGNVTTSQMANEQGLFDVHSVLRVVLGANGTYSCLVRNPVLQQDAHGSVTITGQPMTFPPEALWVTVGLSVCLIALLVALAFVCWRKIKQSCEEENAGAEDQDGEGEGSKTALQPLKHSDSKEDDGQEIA

8H9(scFv)-PE38
IC50 of 8H9(Fv)-PE38 (ng/ml) on BT-474 cells: 20 ng/mL | IC50 of 8H9(Fv)-PE38 (ng/ml) on CRL1427 (MG63) cells: 50 ng/mL | IC50 of 8H9(Fv)-PE38 (ng/ml) on LAN-1 cells: 12.5 ng/mL | IC50 of 8H9(Fv)-PE38 (ng/ml) on MCF-7 cells: 5 ng/mL | IC50 of 8H9(Fv)-PE38 (ng/ml) on NMB-7 cells: 9 ng/mL | IC50 of 8H9(Fv)-PE38 (ng/ml) on OHS-M1 cells: 20 ng/mL | IC50 of 8H9(Fv)-PE38 (ng/ml) on SK-N-BE(2) cells: 90 ng/mL | IC50 of 8H9(Fv)-PE38 (ng/ml) on U2OS cells: 30 ng/mL | IC50 of 8H9(Fv)-PE38 (ng/ml) on ZR-75-1 cells: 35 ng/mL
